Assay results as given in article PMC4339890 (Nature Communications, 2015).

Biological target: the molecule itself
Test: not stated; PAXX 1-145 in solution (Supplementary Fig. 2)

B1: PAXX N-terminal fragment (1–145) (domain or fragment, human, UniProt Q9BUH6 1-145, looked up)
chain: MDPLSPPLCTLPPGPEPPRFVCYCEGEESGEGDRGGFNLYVTDAAELWSTCFTPDSLAALKARFGLSAAEDITPRFRAACEQQAVALTLQEDRASLTLSGGPSALAFDLSKVPGPEAAPRLRALTLGLAKRVWSLERRLAAAEET
notes: A SeMet-labelled double mutant L57M/L105M of the same limits was used for phasing only; source: E. coli (pETDuet-1), purified (nickel beads, HiTrap Q, Superdex 200 gel filtration)
B1 was tested, and the “stoichiometry N” value was 2.
